Results reported in US7119182 (University of California, dated 2006).
Numbered stars: 1 amine (or outer) side, 2 acyl side, 3 side chain; on linkers, the order of the positions; unused ones are H or OH. Square brackets hold non-standard residues; d marks the D form. Ends that are not written are not given here. SMeCys = S-methylcysteine, CSC[C@H](N[*:1])C(=O)[*:2]; Tic = O=C(O)[C@@H]1Cc2ccccc2CN1; Cha = N[C@@H](CC1CCCCC1)C(=O)O; Phg = N[C@H](C(=O)O)c1ccccc1

T1: human thrombin receptor (human, UniProt P25116 42-425)
T1 chain: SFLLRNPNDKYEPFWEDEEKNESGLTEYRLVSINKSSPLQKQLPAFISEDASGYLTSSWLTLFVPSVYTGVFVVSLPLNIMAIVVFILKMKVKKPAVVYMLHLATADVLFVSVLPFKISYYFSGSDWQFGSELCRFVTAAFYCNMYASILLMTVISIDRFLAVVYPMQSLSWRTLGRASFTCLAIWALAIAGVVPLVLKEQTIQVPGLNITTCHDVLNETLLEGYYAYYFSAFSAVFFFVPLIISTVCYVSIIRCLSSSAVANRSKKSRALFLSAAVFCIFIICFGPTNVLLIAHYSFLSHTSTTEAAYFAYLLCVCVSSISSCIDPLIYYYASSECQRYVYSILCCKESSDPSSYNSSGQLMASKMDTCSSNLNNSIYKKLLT

B1: SFLLRNPNDKYE (peptide)
peptide: SFLLRNPNDKYE
B2: SFLLRNPNDK (peptide)
peptide: SFLLRNPNDK
B3: SFLLRNPN (peptide)
peptide: SFLLRNPN
B4: SFLLRNP-NH2 (peptide)
peptide: SFLLRNP-NH2
B5: SFLLRN-NH2 (peptide)
peptide: SFLLRN-NH2
B6: SFLLR-NH2 (peptide)
peptide: SFLLR-NH2
B7: SFLL-NH2 (peptide)
peptide: SFLL-NH2
B8: Ac-FLLRNPNDKYEPF (peptide)
peptide: Ac-FLLRNPNDKYEPF
B9: [desaminoSer]-FLLR-NH2 (peptide)
peptide: XFLLR
modifications: desaminoSer at the N-terminus; C-terminal amide (NH2)
B10: [desaminoAsn]-FLLR-NH2 (peptide)
peptide: desaminoAsn-FLLR-NH2
B11: [3-Tetrahydrofuranoyl]-FLLR-NH2 (peptide)
peptide: {3‑Tetrahydrofuranoyl}-FLLR-NH2
B12: (2-MeButyryl]-FLLR-NH2 (peptide)
peptide: {2‑MeButyryl}-FLLR-NH2
B13: CFLLR-NH2 (peptide)
peptide: CFLLR-NH2
B14: (S-MeCys)FLLRN-NH2 (peptide)
peptide: [SMeCys]FLLRN-NH2
modifications: N-terminus assumed
SMILES: CSC[C@H](N)C(=O)N[C@@H](Cc1ccccc1)C(=O)N[C@@H](CC(C)C)C(=O)N[C@@H](CC(C)C)C(=O)N[C@@H](CCCNC(=N)N)C(=O)N[C@@H](CC(N)=O)C(N)=O
B15: [b-Ala]-FLLR-NH2 (peptide)
peptide: XFLLR
modifications: b-Ala at position 1; C-terminal amide (NH2)
B16: GFLLRNH2 (peptide)
peptide: GFLLR-NH2
B17: TFLLRNPNDK (peptide)
peptide: TFLLRNPNDK
B18: AFLLRNPNDKYE (peptide)
peptide: AFLLRNPNDKYE
B19: SYLLR-NH2 (peptide)
peptide: SYLLR-NH2
B20: S(Cha)LLR-NH2 (peptide)
peptide: SXLLR
modifications: Cha at position 2; C-terminal amide (NH2)
B21: S(Nal)LLR-NH2 (peptide)
peptide: SXLLR
modifications: Nal at position 2; C-terminal amide (NH2)
B22: S(OMeTyr)LLR-NH2 (peptide)
peptide: SXLLR
modifications: OMeTyr at position 2; C-terminal amide (NH2)
B23: S(Thi)LLR-NH2 (peptide)
peptide: SXLLR
modifications: Thi at position 2; C-terminal amide (NH2)
B24: SF(N-MeLeu)LR-NH2 (peptide)
peptide: SFXLR
modifications: N-MeLeu at position 3; C-terminal amide (NH2)
B25: SFHLRN-NH2 (peptide)
peptide: SFHLRN-NH2
B26: SFALRNPNDKYE (peptide)
peptide: SFALRNPNDKYE
B27: SFWLR-NH2 (peptide)
peptide: SFWLR-NH2
B28: SFFLR-NH2 (peptide)
peptide: SFFLR-NH2
B29: SFFLRN-NH2 (peptide)
peptide: SFFLRN-NH2
B30: SF(Phg)LR-NH2 (peptide)
peptide: SF[Phg]LR-NH2
modifications: N-terminus assumed
SMILES: CC(C)C[C@H](NC(=O)[C@@H](NC(=O)[C@H](Cc1ccccc1)NC(=O)[C@@H](N)CO)c1ccccc1)C(=O)N[C@@H](CCCNC(=N)N)C(N)=O
B31: SFPLR-NH2 (peptide)
peptide: SFPLR-NH2
B32: SFGLR-NH2 (peptide)
peptide: SFGLR-NH2
B33: SFRLR-NH2 (peptide)
peptide: SFRLR-NH2
B34: SFYLRN-NH2 (peptide)
peptide: SFYLRN-NH2
B35: SFILR-NH2 (peptide)
peptide: SFILR-NH2
B36: SF(Cha)LR-NH2 (peptide)
peptide: SF[Cha]LR-NH2
modifications: N-terminus assumed
SMILES: CC(C)C[C@H](NC(=O)[C@H](CC1CCCCC1)NC(=O)[C@H](Cc1ccccc1)NC(=O)[C@@H](N)CO)C(=O)N[C@@H](CCCNC(=N)N)C(N)=O
B37: SF(Cha)LRN-NH2 (peptide)
peptide: SF[Cha]LRN-NH2
modifications: N-terminus assumed
SMILES: CC(C)C[C@H](NC(=O)[C@H](CC1CCCCC1)NC(=O)[C@H](Cc1ccccc1)NC(=O)[C@@H](N)CO)C(=O)N[C@@H](CCCNC(=N)N)C(=O)N[C@@H](CC(N)=O)C(N)=O
B38: SF(Tic)LRN-NH2 (peptide)
peptide: SF[Tic]LRN-NH2
modifications: N-terminus assumed
SMILES: CC(C)C[C@H](NC(=O)[C@@H]1Cc2ccccc2CN1C(=O)[C@H](Cc1ccccc1)NC(=O)[C@@H](N)CO)C(=O)N[C@@H](CCCNC(=N)N)C(=O)N[C@@H](CC(N)=O)C(N)=O
B39: SFLAR-NH2 (peptide)
peptide: SFLAR-NH2
B40: SFLQRN-NH2 (peptide)
peptide: SFLQRN-NH2
B41: SFLIRN-NH2 (peptide)
peptide: SFLIRN-NH2
B42: SFLFR-NH2 (peptide)
peptide: SFLFR-NH2
B43: SFLRR-NH2 (peptide)
peptide: SFLRR-NH2
B44: SFL(Nal)RN-NH2 (peptide)
peptide: SFL[Nal]RN-NH2
modifications: not fully specified; printed as SFL(Nal)RN-NH2
B45: SFL(Cha)R-NH2 (peptide)
peptide: SFL[Cha]R-NH2
modifications: N-terminus assumed
SMILES: CC(C)C[C@H](NC(=O)[C@H](Cc1ccccc1)NC(=O)[C@@H](N)CO)C(=O)N[C@@H](CC1CCCCC1)C(=O)N[C@@H](CCCNC(=N)N)C(N)=O
B46: SF(Cha) (Cha)RN-NH2 (peptide)
peptide: SF[Cha][Cha]RN-NH2
modifications: N-terminus assumed
SMILES: N=C(N)NCCC[C@H](NC(=O)[C@H](CC1CCCCC1)NC(=O)[C@H](CC1CCCCC1)NC(=O)[C@H](Cc1ccccc1)NC(=O)[C@@H](N)CO)C(=O)N[C@@H](CC(N)=O)C(N)=O
B47: SF(Cha) (Cha)LRNPNDK (peptide)
peptide: SF[Cha][Cha]LRNPNDK
B48: SFLL(D-Arg)-NH2 (peptide)
peptide: SFLLX
modifications: D-Arg at position 5; C-terminal amide (NH2)
B49: SFLLA-NH2 (peptide)
peptide: SFLLA-NH2

Molecular target: T1, human thrombin receptor
Assay: cell-based or functional assay

Row | Binder | EC50 (concentration required to elicit a 50% maximal aggregation), platelet aggregation [µM]
1 | B1 | 6.6
2 | B2 | 6.3
3 | B3 | 7.6
4 | B4 | 4.5
5 | B5 | 1.6
6 | B6 | 7.5
7 | B7 | 146
8 | B8 | 796
9 | B9 | 920
10 | B10 | 237
11 | B11 | 1000
12 | B12 | 1500
13 | B13 | 193
14 | B14 | 129
15 | B15 | 99
16 | B16 | 7.3
17 | B17 | 8.5
18 | B18 | 12.9
19 | B19 | 288
20 | B20 | 140
21 | B21 | 42
22 | B22 | 46
23 | B23 | 7.6
24 | B24 | > 1000
25 | B25 | 40.5

Row | Binder | EC50 (concentration required to elicit a 50% maximal aggregation), platelet aggregation [µM]
26 | B26 | 20.7
27 | B27 | 24
28 | B28 | 3.4
29 | B29 | 1.5
30 | B30 | 6.7
31 | B31 | 22
32 | B32 | 95
33 | B33 | 7.4
34 | B34 | 4.9
35 | B35 | 5.9
36 | B36 | 1.5
37 | B37 | 1.3
38 | B38 | 11.3
39 | B39 | 146
40 | B40 | 61
41 | B41 | 20.5
42 | B42 | 17
43 | B43 | 1000
44 | B44 | 7.5
45 | B45 | 6
46 | B46 | 1.1
47 | B47 | 5.4
48 | B48 | 594
49 | B49 | 137
